According to publication PMC7083937, “The ribosome-associated complex RAC serves in a relay that directs nascent chains to Ssb” (Nature Communications, 2020):
No end group written: not given here. fluorescein = fluorescein (N-terminal label)

Columns and labels:
[1] = nanoDSF thermal stability of RAC core complexes; format: physicochemical, Saccharomyces cerevisiae; settings: 20 mM Hepes/KOH pH 7.5, 200 mM KCl, 5 mM MgCl2, 1 mM DTT, 20 to 90 °C at 1.5 °C/min, 330/350 nm, no peptide, three measurements shown
Procedure: (§1) The melting temperature of ScSsz1-Zuo1N, ScSsz1-Zuo1NΔLP or ScSsz1mut-Zuo1NΔLP with or without the LP-peptide (Peptide Specialty Laboratories GmbH, Heidelberg) were determined using the Prometheus NT.48 nanoDSF system using nano-DSF grade capillaries (NanoTemper Technologies GmbH). The measurements were performed in 20 mM Hepes/KOH pH 7.5, 200 mM KCl, 5 mM MgCl2, 1 mM DTT. The LP-peptide, which was dissolved in DMSO, was pre-diluted in the above buffer such that the final DMSO concentration in the experiment was below 0.5%. DMSO diluted in the same way was added to the negative control. Intrinsic protein fluorescence was measured continuously at 330 nm and 350 nm with a temperature gradient ranging from 20 to 90 °C at a rate of 1.5 °C/min. […]
(§2) (a-b) NanoDSF analysis of Ssz1-Zuo1N (blue) and Ssz1-Zuo1NDLP (orange) in a and Ssz1-Zuo1NDLP wit hout t he LP-pept ide (orange) or wit h t he LP-pept ide (blue) in b. Three measurements are shown.
(§3) Source data are provided as a Source Dat a f ile.
(§4) (c) Residues (L439S/K440P/I448F/G495K) mutated in Ssz1mut to block substrate binding to Ssz1-SBDb (cyan) are in stick representation (upper panel). Zuo1N is shown in orange a nd the LP-motif in yellow. Multiple sequence alignment of Hsp70 homologs (lower panel) wit h the mutations highlighted in yellow. The alignment is colored as in Fig. 2a. […]

[2] = test system: ScSsz1-Zuo1NΔLP; experiment: nanoDSF melting temperature with/without LP-peptide; format: binding, Saccharomyces cerevisiae; settings: DMSO negative control (<0.5%), pH 7.5, 200 mM KCl, 20 to 90 °C at 1.5 °C/min, three measurements shown
Procedure: as §1, §2, §3, §4

[3] = molecular target: T1, ScSsz1-Zuo1NΔLP complex (ScSsz1 with ScZuo1NΔLP residues 10-50) (S. cerevisiae, UniProt P38788 1-538; P32527 10-50); experiment: fluorescence polarisation; fluorescence anisotropy; two-fold serial dilutions of the protein complex mixed 1:1 with 40 nM fluorescein peptide; 20 mM Hepes/KOH pH 7.5, 200 mM KCl, 5 mM MgCl2, 1 mM DTT, 1 µM BSA; room temperature, 30 min; one-site binding fit; affinity called estimated; settings: both partners purified
T1 construct: Ssz1, S. cerevisiae; Zuo1, S. cerevisiae, residues 10-50, lacking the LP-motif (ScZuo1NΔLP); residues of the 3C site may be left on Zuo1NΔLP; not shown: His6-MBP, N-terminal, cleaved
T1 sequence (looked up) 1: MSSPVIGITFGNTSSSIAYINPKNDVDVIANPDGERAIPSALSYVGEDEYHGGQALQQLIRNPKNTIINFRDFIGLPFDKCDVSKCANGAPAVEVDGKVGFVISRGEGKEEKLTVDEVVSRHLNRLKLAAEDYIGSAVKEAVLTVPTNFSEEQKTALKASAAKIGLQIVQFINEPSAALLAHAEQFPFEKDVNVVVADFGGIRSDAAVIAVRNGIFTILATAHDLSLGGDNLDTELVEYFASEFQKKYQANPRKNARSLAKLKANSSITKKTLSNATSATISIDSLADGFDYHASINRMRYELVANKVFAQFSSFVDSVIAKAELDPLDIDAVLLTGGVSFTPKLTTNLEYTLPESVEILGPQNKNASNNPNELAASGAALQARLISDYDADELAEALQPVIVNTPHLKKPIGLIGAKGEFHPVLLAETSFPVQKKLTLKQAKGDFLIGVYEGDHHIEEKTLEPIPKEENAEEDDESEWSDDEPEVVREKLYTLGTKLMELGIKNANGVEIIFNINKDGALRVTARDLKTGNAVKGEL
T1 sequence (looked up) 2: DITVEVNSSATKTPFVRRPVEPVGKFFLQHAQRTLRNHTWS

[4] = molecular target: T1, ScSsz1-Zuo1NΔLP complex (ScSsz1 with …); experiment: nanoDSF; melting temperature of the complex with or without LP-peptide; 20 mM Hepes/KOH pH 7.5, 200 mM KCl, 5 mM MgCl2, 1 mM DTT; 20 to 90 °C at 1.5 °C/min; settings: both partners purified

B1: RAC core complex: ScSsz1 with ScZuo1N (residues 1-50) (protein)
chain 1: MSSPVIGITFGNTSSSIAYINPKNDVDVIANPDGERAIPSALSYVGEDEYHGGQALQQLIRNPKNTIINFRDFIGLPFDKCDVSKCANGAPAVEVDGKVGFVISRGEGKEEKLTVDEVVSRHLNRLKLAAEDYIGSAVKEAVLTVPTNFSEEQKTALKASAAKIGLQIVQFINEPSAALLAHAEQFPFEKDVNVVVADFGGIRSDAAVIAVRNGIFTILATAHDLSLGGDNLDTELVEYFASEFQKKYQANPRKNARSLAKLKANSSITKKTLSNATSATISIDSLADGFDYHASINRMRYELVANKVFAQFSSFVDSVIAKAELDPLDIDAVLLTGGVSFTPKLTTNLEYTLPESVEILGPQNKNASNNPNELAASGAALQARLISDYDADELAEALQPVIVNTPHLKKPIGLIGAKGEFHPVLLAETSFPVQKKLTLKQAKGDFLIGVYEGDHHIEEKTLEPIPKEENAEEDDESEWSDDEPEVVREKLYTLGTKLMELGIKNANGVEIIFNINKDGALRVTARDLKTGNAVKGEL
chain 2: MFSLPTLTSDITVEVNSSATKTPFVRRPVEPVGKFFLQHAQRTLRNHTWS
modifications: left off: His6-SUMO, N-terminal, state not stated | His6-MBP, N-terminal, cleaved
melting temperature (thermal stability of RAC core complex) [1]: 52.9 °C

B2: Ssz1-Zuo1NΔLP: ScSsz1 with ScZuo1NΔLP (residues 10-50) lacking the LP-motif (protein)
chain 1: MSSPVIGITFGNTSSSIAYINPKNDVDVIANPDGERAIPSALSYVGEDEYHGGQALQQLIRNPKNTIINFRDFIGLPFDKCDVSKCANGAPAVEVDGKVGFVISRGEGKEEKLTVDEVVSRHLNRLKLAAEDYIGSAVKEAVLTVPTNFSEEQKTALKASAAKIGLQIVQFINEPSAALLAHAEQFPFEKDVNVVVADFGGIRSDAAVIAVRNGIFTILATAHDLSLGGDNLDTELVEYFASEFQKKYQANPRKNARSLAKLKANSSITKKTLSNATSATISIDSLADGFDYHASINRMRYELVANKVFAQFSSFVDSVIAKAELDPLDIDAVLLTGGVSFTPKLTTNLEYTLPESVEILGPQNKNASNNPNELAASGAALQARLISDYDADELAEALQPVIVNTPHLKKPIGLIGAKGEFHPVLLAETSFPVQKKLTLKQAKGDFLIGVYEGDHHIEEKTLEPIPKEENAEEDDESEWSDDEPEVVREKLYTLGTKLMELGIKNANGVEIIFNINKDGALRVTARDLKTGNAVKGEL
chain 2: DITVEVNSSATKTPFVRRPVEPVGKFFLQHAQRTLRNHTWS
modifications: left off: His6-SUMO, N-terminal, state not stated | His6-MBP, N-terminal, cleaved
notes: ScSsz1 with ScZuo1NΔLP (residues 10-50) lacking the LP-motif
melting temperature of Ssz1-Zuo1NΔLP without LP-peptide [2]: 40.3 °C | melting temperature (thermal stability of RAC core complex) [1]: 39.7 °C

B3: LP-peptide (MFSLPTL) labelled at the N terminus with fluorescein (peptide)
peptide: fluorescein-MFSLPTL
notes: LP-motif of Zuo1, S. cerevisiae, residues 1-7; source: synthetic peptide (Peptide Specialty Laboratories GmbH, Heidelberg)
Kd [3]: 11.9 ± 4 µM

B4: LP-peptide (MFSLPTL, ScZuo1 residues 1-7), free peptide (peptide)
peptide: MFSLPTL
notes: as for B3
binding result [4]: binds
